Consider three proteins from article PMC2959125 (Biochemistry, 2010).

B1: N-acetyl-L-ornithine transcarbamylase from Xanthomonas campestris, K302A mutant (enzyme)
chain: MSLKHFLNTQDWSRAELDALLTQAALFKRNKLGSELKGKSIALVFFNPSMRTRTSFELGAFQLGGHAVVLQPGKDAWPIEFNLGTVMDGDTEEHIAEVARVLGRYVDLIGVRAFPKFVDWSKDREDQVLKSFAKYSPVPVINMETITHPCQELAHALALQEHFGTPDLRGKKYVLTWTYHPKPLNTAVANSALTIATRMGMDVTLLCPTPDYILDERYMDWAAQNVAESGGSLQVSHDIDSAYAGADVVYAKSWGALPFFGNWEPEKPIRDQYQHFIVDERKMALTNNGVFSHCLPLRRNVAATDAVMDSPNCIAIDEAENRLHVQKAIMAALVGQSRP
B2: N-acetyl-L-ornithine transcarbamylase from Xanthomonas campestris, K302E mutant (enzyme)
chain: MSLKHFLNTQDWSRAELDALLTQAALFKRNKLGSELKGKSIALVFFNPSMRTRTSFELGAFQLGGHAVVLQPGKDAWPIEFNLGTVMDGDTEEHIAEVARVLGRYVDLIGVRAFPKFVDWSKDREDQVLKSFAKYSPVPVINMETITHPCQELAHALALQEHFGTPDLRGKKYVLTWTYHPKPLNTAVANSALTIATRMGMDVTLLCPTPDYILDERYMDWAAQNVAESGGSLQVSHDIDSAYAGADVVYAKSWGALPFFGNWEPEKPIRDQYQHFIVDERKMALTNNGVFSHCLPLRRNVEATDAVMDSPNCIAIDEAENRLHVQKAIMAALVGQSRP
B3: N-acetyl-L-ornithine transcarbamylase from Xanthomonas campestris, K302R mutant (enzyme)
chain: MSLKHFLNTQDWSRAELDALLTQAALFKRNKLGSELKGKSIALVFFNPSMRTRTSFELGAFQLGGHAVVLQPGKDAWPIEFNLGTVMDGDTEEHIAEVARVLGRYVDLIGVRAFPKFVDWSKDREDQVLKSFAKYSPVPVINMETITHPCQELAHALALQEHFGTPDLRGKKYVLTWTYHPKPLNTAVANSALTIATRMGMDVTLLCPTPDYILDERYMDWAAQNVAESGGSLQVSHDIDSAYAGADVVYAKSWGALPFFGNWEPEKPIRDQYQHFIVDERKMALTNNGVFSHCLPLRRNVRATDAVMDSPNCIAIDEAENRLHVQKAIMAALVGQSRP

The data set concerns the molecule itself. Description: crystal structure.
For B1, the binding result is “binds”.

Take B2: the binding result is given as “binds”.

In the case of B3, the binding result is recorded as “binds”.
